Here are results for 22 sequences from a protein production outcome set (Wang et al. 2014).

The nature of this data set: label from the status in PepcDB records.
For “SHHKVSVSPVVHVRGLCESVVEADLVEALEKFGTICYVMMMPFKRQALVEFENIDSAKECVTFAADVPVYIAGQQAFFNYSTSKRITRPGN”, the protein production result is “not failed”.

As for “SHPCFVQGRPELLSQIKRKQSARTVEDKQVNEQTQQNLEVVMAEMRAMREKAKNMEDKMNKLTKENRDMWTQMGSMRQQHARQQQYFKKLLHFLVSVMQPGLSKRVAKRGVLEIDFCAANGTAGPNSKRARMNSEEGPYKDVCDLLESLQRETQEPFSRRFTNNEGPLISEVTDEFGNSPVGRGSAQDLFGDTFGAQSSRYSDGGATSSREQSPHPIISQPQSNSAGAHGANEQKPDDMYMGSGPLTHENIHRGISALKRDYQGASPASGGPSTSSSAPSGAGAGARMAQKRAAPYKNATRQMAQPQQDYSGGFVNNYSGFMPSDPSMIPYQPSHQYLQPHQKLMAIEDQHHPTTSTSSTNADPHQNLYSPTLGLSPSFDRQLSQELQEYFTGTDTSLESFRDLVSNHNWDDFGNNVPLDDDEEGSEDPLRQLALENAPETSNYDGAEDLLFDNEQQYPENGFDVPDPNYLPLADEEIFPHSPALRTPSPS”, the protein production entry was “failed”.

Regarding “SIAYIEPYFLENDAEAASAATAAGKSTDGVSESLNIQGEILCGGAAADIAGRDFGGMNCVKPLAVVRPVGPEDIAGAVKAALRSDKLTVAARGNGHSINGQAMAEGGLVVDMSTTAENHFEVGYLSGGDATAFVDVSGGALWEDVLKRCVSEYGLAPRSWTDYLGLTVGGTLSNAGVSGQAFRYGPQTSNVTELDVVTGNGDVVTCSEIENSELFFSVLGGLGQFGIITRARVLLQPAPDMVRWIRVVYTEFDEFTQDAEWLVSQKNESSFDYVEGFVFVNGADPVNGWPTVPLHPDHEFDPTRLPQSCGSVLYCLELGLHYRDSDSNSTIDKRVERLIGRLRFNEGLRFEVDLPYVDFLLRVKRSEEIAKENGTWETPHPWLNLFVSKRDIGDFNRTVFKELVKNGVNGPMLVYPLLRSRWDDRTSVVIPEEGEIFYIVALLRFVPPCAKVSSVEKMVAQNQEIVHWCVKNGIDYKLYLPHYKSQEEWIRHFGNRWSRFVDRKAMFDPMAILSPGQKIFNRSL”, the protein production result is recorded as “not failed”.

On to “SIPMRLLSDCPQFSRKTVKLLTNGGDMLELCYELRLPFVHWISVNQKSSFKRYEISHVYRRAIGHSPPNPCLQADFDIVGGTLSLTEAEVLKVIVDITTHIFHRGSCDIHLNHGDLLDAIWSWAGIKAEHRRKVAELLSMMGSLRPQSSERKLKWVFIRRQLLQELKLPEAVVNRLQTVASRFCGDADQALPRLRGALRADRPTRKALDELSNLLTYLRVWRIEEHVHIDVLMPPTESYHRNLFFQVFLTKENSSGTSNDGVLLAVGGRYDWLVQEVCDREHKMNLPGAVGVSLALETIFQHLPMDLRPIRNEVSTSVLVCSRGGGGLLVQRMELVAELWEKSIKAEFVPTPDPSLTEQYEYANEHEIKCLVIITESGVAQNQIEFVKVRHLELKKEKVVGR”, for which the protein production entry is “not failed”.

For “SIRTKQSEAKSKGDTLRQLELAALMTHCNMLITHQQLALQAAMKLAYATKNYLYALAFAKRLLELAPNEEMERTAKKVMQFCERNPNNQNQLDYDIEQSNFAIDAGRLKPCIQPPTKSCVYCGACYDESWHSMTCVVCQVAQD”, the protein production entry is “not failed”.

For “SIVLSDPDTVADYLRFHLGQEKVEVSVALLLNRQNQLIAVRELSRGTVAENTIYIREIVKLALDEYADSLIIAHNHPGGSPEPSQEDIMFTRRLAQAMSLVDVSLLDHFIVTSQSVCSFRQLGLMP”, the protein production result is recorded as “not failed”.

On to “SKDHTEFMVHLNNRIILRRWSIFKEFLHSEELKNTPASVEAELAVTAILEKLNQQIPPRPFQTHSSTTSAKQSTATIHNPQRTYCVGDQLNVLLVAKDYFGNRKEYGGDFLRARIFSPAMKAGTSGKVTDFNNGTYLVSFTLFWEGPVSLSILLMHPSEGVSALWRARNRGYGKIIFTGQFLNGTSPVLTECGLTLNTSAELCQYLDARDHEAFYCLKLPGVPCEALTHMTSKNSNISYLSLEEKLLFRRFNIGVEVVKNLSIVVSLCNNKTNKKKKKCQIGMETPSPGGYTLKGRWITAHCEQNEFRAIKDINNCLTRKLIYLMGDSTLRQWIYYLPKVVKTLKYFDRHGAGPFKTHILLDTERHIFVQWKKHSHPFVTNKLFSMKDDNYIPREIDQVAGDSGTAIVISFGQHFRPFPINVFIRRAINVKNAIERLFLRSPETKVIIKTENIREINEHVEIFSDFHGSIQNLIIRDIFRDLNVGIIDAWDMTVAYRSEDVHPPESVIESQIGMFLNYIC”, for which the protein production entry is listed as “failed”.

As to “SKDPAFTALLTTQLQVQREIVNKHNELRKAVSPPASNMLKMEWSREVTTNAQRWANKCTLQHSDPEDRKTSTRCGENLYMSSDPTSWSSAIQSWYDEILDFVYGVGPKSPNAVVGHYTQLVWYSTYQVGCGIAYCPNQDSLKYYYVCQYCPAGNNMNRKNTPYQQGTPCAGCPDDCDKGLCTNSCQYQDLLSNCDSLKNTAGCEHELLKEKCKATCLCENKIY”, the protein production entry is reported as “failed”.

Regarding “SKDVLADYKELFRQFSISDIAVWVSTPSFAGVCITEKEFNSKMLPNLESMIFIGEALSKNLTKELMSRFPNTRIINGYGPTEATVGVSVNDMTQKAIDDEK”, the protein production result is on record as “failed”.

On to “SKEVRGTLKVSAPRDIGKQHIAPILAAFTEQYPEVVPYLYLNDNISNLAESGLDVVIRYGELADSSLISRKLATSRRVLCASPAYLARKGIPKTPQDLAQHDCLAMVRSNEEMKTWHFQENEQHKVITVVPKSFADDGEVIR”, for which the protein production entry was “failed”.

On to “SKIHNVGSPLKSQNHPDSRAIMYEETTYSKKKIIDFLSALEGFKVMCKIIGIMEEVADGFKSKILKQVISLQTKNPEGRFPDLTVELNRWDTAFDHEKARKTGLITPKAGFDSDYDQALADIRENEQSLLEYLEKQRNRIGCRTIVYWGIGRNRYQLEIPENFTTRNLPEEYELKSTKKGCKRYWTKTIEKKLANLINAEERRDVSLKDCMRRLFYNFDKNYKDWQSAVECIAVLDVLLCLANYSRGGDGPMCRPVILLPEDTPPFLELKGSRHPCITKTFFGDDFIPNDILIGCEEEEQENGKAYCVLVTGPNMGGKSTLMRQAGLLAVMAQMGCYVPAEVCRLTPIDRVFTRLGASDRIMSGESTFFVELSETASILMHATAHSLVLVDELGRGTATFDGTAIANAVVKELAETIKCRTLFSTHYHSLVEDYSQNVAVRLGHMACMVENECEDPSQETITFLYKFIKGACPKSYGFNAARLANLPEEVIQKGHRKAREFEKMNQSLRLFREVCLASERSTVDAEAVHKLLTLIKEL”, for which the protein production result is listed as “failed”.

Regarding “SKIIDIKTSIIKIPLKRTFITAVRSTNHIDSLAVELTLDNGVKGYGVAPATTAITGDTLQGMQYIIREIFAPVILGSDLSDYKQTLELAFKKVMFNSAAKMAIDLAYHDLLAKEQDISVAKLLGAKANSIVTDVSISCGNVAETIQNIQNGVEANFTAIKVKTGADFNRDIQLLKALDNEFSKNIKFRFDANQGWNLAQTKQFIEEINKYSLNVEIIEQPVKYYDIKAMAEITKFSNIPVVADESVFDAKDAERVIDEQACNMINIKLAKTGGILEAQKIKKLADSAGISCMVGCMMESPAGILATASFALAEDITVADLDPLDWVAKDLYSDYITFNEPNIILKDNLKGFGFNL”, the protein production result was “not failed”.

In the case of “SLDLDLQRRVYDIISKAVEGNSAEAGHVIVMESKTGRILSMVTTRNWNDLIGGYIEPGSTIKPLVYAIALETHSASPDFTVECEGSIKPVEQLPVIIRDIEKHGLVDFSAGIVKSCNVMSVKVGELITEKTGVEGFYEWLRKVGFGEKTGIEMEGEIAGVLREPKKWSLIDPAEISIGQGIGVTPVQLIASLNIFANDGYWVKPTILKDSPVKKRRVFSKETTDVIRQAMVRVVEEGTGKLAQVKGIAIAGKTGTAQKAVGGEYRNLYHSLFVGFFPAEDPKYTILVHLDSPSGAFYGGEVAAPVFREIVEILTEKED”, the protein production result is listed as “failed”.

In the case of “SLENERLIKMSRFSERGYVVRENGPVYFTKDMDKTVKWFEEILGWSGDIVARDDEGFGDYGCVFDYPSEVAVAHLTPFRGFHLFKGEPIKGVAGFMMIEGIDALHKYVKENGWDQISDIYTQPWGARECSITTTDGCILRFFESIQEG”, the protein production result is “not failed”.

“SLENLATAPVNQIQETISDNCVVIFSKTSCSYCTMAKKLFHDMNVNYKVVELDLLEYGNQFQDALYKMTGERTVPRIFVNGTFIGGATDTHRLHKEGKLLPLVHQCYLKKSKRKEFQ”: the protein production result is on record as “not failed”.

Take “SLGAMFRAGTPMPPNLNSQGGGHYFIDRDGKAFRHILNFLRLGRLDLPRGYGETALLRAEADFYQIRPLLDALRELEASQGTPAPTAALLHADVDVSPRLVHFSARRGPHHYELSSVQVDTFRANLFCTDSECLGALRARFGVASGDRAEGSPHFHLEWAPRPVELPEVEYGRLGLQPLWTGGPGERREVVGTPSFLEEVLRVALEHGFRLDSVFPDPEDLLNSRSLRFVRH”: the protein production result is “not failed”.

Take “SLGVQPPNFSWVLPGRLAGLALPRLPAHYQFLLDLGVRHLVSLTERGPPHSDSCPGLTLHRLRIPDFCPPAPDQIDRFVQIVDEANARGEAVGVHCALGFGRTGTMLACYLVKERGLAAGDAIAEIRRLRPGSIETYEQEKAVFQFYQRTK”: the protein production entry was “not failed”.

As to “SLLGQKSQRYKAEEGLQAQGEAPGLMDVQIPTAEEQKAASSSSTLIMGTLEEVTDSGSPSPPQSPEGASSSLTVTDSTLWSQSDEGSSSNEEEGPSTSPDPAHLESLFREALDEKVAELVRFLLRKYQIKEPVTKAEMLESVIKNYKNHFPDIFSKASECMQVIFGIDVKEVDPAGHSYILVTCLGLSYDGLLGDDQSTPKTGLLIIVLGMILMEGSRAPEEAIWEALSVMGLYDGREHSVYWKLRKLLTQEWVQENYLEYRQAPGSDPVRYEFLWGPRALAETSYVKVLEHVVRVNARVRISYPSLHEEALGEEKGV”, the protein production result is given as “not failed”.

For the sequence “SLLSVDMEMQIPFHDVDSMGITWHGNYLRYFEIARCKLLDELGYNYRQMQASNYAWPIIDLQIKYVKTSTFEQKITVRAELVEWENRLKINYQIRDVETGARITKGYTIQAAVDMCTQELCFVTPEVFRDKIATLFAKVE”, the protein production result is given as “failed”.

Turning to “SLSLIRKKGFYKQDVNKTAWELPKTYVSPTHVGSGAYGSVCSAIDKRSGEKVAIKKLSRPFQSEIFAKRAYRELLLLKHMQHENVIGLLDVFTPASSLRNFYDFYLVMPFMQTDLQKIMGLKFSEEKIQYLVYQMLKGLKYIHSAGVVHRDLKPGNLAVNEDCELKILDFGLARHADAEMTGYVVTRWYRAPEVILSWMHYNQTVDIWSVGCIMAEMLTGKTLFKGKDYLDQLTQILKVTGVPGTEFVQKLNDKAAKSYIQSLPQTPRKDFTQLFPRASPQAADLLEKMLELDVDKRLTAAQALTHPFFEPFRDPEEETEAQQPFDDSLEHEKLTVDEWKQHIYKEIVNFSPI”, the protein production result is listed as “not failed”.

Consider “SLSLRPSPRLLCTATKQKNSGQNLEEDMGQSEQKADPPATEKTLLEEKVKLEEQLKETVEKYKRALADTENLRQRSQKLVEEAKLYGIQAFCKDLLEVADVLEKATQCVPKEEIKDDNPHLKNLYEGLVMTEVQIQKVFTKHGLLKLNPVGAKFDPYEHEALFHTPVEGKEPGTVALVSKVGYKLHGRTLRPALVGVVKEA”, for which the protein production result was “not failed”.

Regarding “SLTGEESDTLRKIVLEECLPNQQQNQNPSPCAEVKPNAGYVVLKDLNGPLQYLLMPTYRINGTESPLLTDPSTPNFFWLAWQARDFMSKKYGQPVPDRAVSLAINSRTGRTQNHFHIHISCIRPDVREQLDNNLANISSRWLPLPGGLRGHEYLARRVTESELVQRSPFMMLAEEVPEAREHMGSYGLAMVRQSDNSFVLLATQRNLLTLNRASAEEIQDHQCEILR”, the protein production entry is reported as “not failed”.
